Measured values from IntAct's records for PubMed 19749176.

B1: Serine/threonine-protein phosphatase PP1-1 (Saccharomyces cerevisiae), P20604 (parent)
chain: MVSRGPDEWLETIKKCQALTENEMKQLCEMVKELLMEESNIQPVQTPVTVCGDIHGQFHDLLELFRTAGGFPDDINYIFLGDYVDRGYYSLETFTLLMCLKVKYPAKITLVRGNHESRQITQVYGFYEECLNKYGSTTVWKYCCQVFDFLTLAAIIDGKILCVHGGLSPEIRMLDQIRVLSRAQEVPHEGGFSDLLWSDPDNVEAWQVSPRGAGWLFGSKVAREFNHVNGLNLIARAHQLVMEGFKYHFPEKDVVTVWSAPNYCYRCGNVASVMKVDEDLEPTFKIFSAVPDDYIRESTANHNNQRAGYFL
partner: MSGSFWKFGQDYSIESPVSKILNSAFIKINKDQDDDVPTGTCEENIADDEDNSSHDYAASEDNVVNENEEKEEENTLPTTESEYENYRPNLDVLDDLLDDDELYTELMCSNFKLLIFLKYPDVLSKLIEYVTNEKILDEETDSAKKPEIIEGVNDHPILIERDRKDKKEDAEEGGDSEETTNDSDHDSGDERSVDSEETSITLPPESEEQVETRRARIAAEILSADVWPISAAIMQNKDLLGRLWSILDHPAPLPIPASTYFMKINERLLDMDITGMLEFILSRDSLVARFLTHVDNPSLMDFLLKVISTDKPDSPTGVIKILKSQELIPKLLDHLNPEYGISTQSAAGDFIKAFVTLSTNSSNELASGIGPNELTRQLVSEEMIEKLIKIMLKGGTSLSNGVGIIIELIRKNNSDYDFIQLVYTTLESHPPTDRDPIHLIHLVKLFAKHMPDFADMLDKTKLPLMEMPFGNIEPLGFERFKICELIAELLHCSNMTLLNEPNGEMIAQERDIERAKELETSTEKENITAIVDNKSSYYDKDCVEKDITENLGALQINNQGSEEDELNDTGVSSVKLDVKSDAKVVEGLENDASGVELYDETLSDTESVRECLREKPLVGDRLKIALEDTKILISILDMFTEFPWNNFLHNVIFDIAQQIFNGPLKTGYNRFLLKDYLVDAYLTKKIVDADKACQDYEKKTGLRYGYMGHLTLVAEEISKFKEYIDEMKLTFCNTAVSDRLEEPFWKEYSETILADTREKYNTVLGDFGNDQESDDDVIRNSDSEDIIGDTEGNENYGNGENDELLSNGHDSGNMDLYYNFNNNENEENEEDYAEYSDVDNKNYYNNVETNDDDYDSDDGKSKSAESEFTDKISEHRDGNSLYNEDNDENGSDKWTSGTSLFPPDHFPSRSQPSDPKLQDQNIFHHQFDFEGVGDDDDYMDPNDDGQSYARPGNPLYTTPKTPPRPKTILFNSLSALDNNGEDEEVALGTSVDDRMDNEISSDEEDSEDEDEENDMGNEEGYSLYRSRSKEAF
B2: Serine/threonine-protein phosphatase PP1-1 (Saccharomyces cerevisiae), P20604 (parent)
chain: B1 chain
partner: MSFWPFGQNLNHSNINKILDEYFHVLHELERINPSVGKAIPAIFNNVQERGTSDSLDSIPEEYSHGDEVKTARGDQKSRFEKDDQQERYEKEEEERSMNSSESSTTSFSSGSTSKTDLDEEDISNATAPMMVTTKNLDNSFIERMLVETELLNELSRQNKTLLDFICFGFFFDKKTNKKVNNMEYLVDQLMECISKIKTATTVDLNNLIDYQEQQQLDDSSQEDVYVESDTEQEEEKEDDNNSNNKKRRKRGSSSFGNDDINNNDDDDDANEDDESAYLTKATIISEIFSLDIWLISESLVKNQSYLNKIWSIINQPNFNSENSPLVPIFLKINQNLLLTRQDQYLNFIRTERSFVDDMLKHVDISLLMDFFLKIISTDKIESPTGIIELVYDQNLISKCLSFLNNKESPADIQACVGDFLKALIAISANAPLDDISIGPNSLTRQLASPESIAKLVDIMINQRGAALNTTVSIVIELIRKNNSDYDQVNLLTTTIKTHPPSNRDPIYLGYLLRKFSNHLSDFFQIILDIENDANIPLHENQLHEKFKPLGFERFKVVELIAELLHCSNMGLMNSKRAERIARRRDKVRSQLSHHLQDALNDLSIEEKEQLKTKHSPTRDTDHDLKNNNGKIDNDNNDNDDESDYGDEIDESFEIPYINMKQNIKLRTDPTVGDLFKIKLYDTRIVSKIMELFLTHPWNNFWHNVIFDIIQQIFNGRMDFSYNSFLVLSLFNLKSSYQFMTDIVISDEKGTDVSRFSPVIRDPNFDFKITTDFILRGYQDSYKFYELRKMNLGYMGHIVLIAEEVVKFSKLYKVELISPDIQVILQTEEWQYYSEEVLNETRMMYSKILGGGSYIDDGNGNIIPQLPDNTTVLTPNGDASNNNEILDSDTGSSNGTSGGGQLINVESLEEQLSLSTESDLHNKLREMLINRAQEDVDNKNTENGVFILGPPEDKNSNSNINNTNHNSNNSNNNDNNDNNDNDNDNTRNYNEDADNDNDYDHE

Variants of: B1
Settings: with sa190_yeast SAP190, P36123

effect of a mutation on the interaction | Variant
decreasing interaction | MVSRGPDEWLETIKKCQALTENEMKQLCEMVKELLMAASNIQPVQTPVTVCGDIHGQFHDLLELFRTAGGFPDDINYIFLGDYVDRGYYSLETFTLLMCLKVKYPAKITLVRGNHESRQITQVYGFYEECLNKYGSTTVWKYCCQVFDFLTLAAIIDGKILCVHGGLSPEIRMLDQIRVLSRAQEVPHEGGFSDLLWSDPDNVEAWQVSPRGAGWLFGSKVAREFNHVNGLNLIARAHQLVMEGFKYHFPEKDVVTVWSAPNYCYRCGNVASVMKVDEDLEPTFKIFSAVPDDYIRESTANHNNQRAGYFL [E37A;E38A]

Variants of: B2
Settings: with sa155_yeast SAP155, P43612

effect of a mutation on the interaction | Variant
decreasing interaction | MVSRGPDEWLETIKKCQALTENEMKQLCEMVKELLMAASNIQPVQTPVTVCGDIHGQFHDLLELFRTAGGFPDDINYIFLGDYVDRGYYSLETFTLLMCLKVKYPAKITLVRGNHESRQITQVYGFYEECLNKYGSTTVWKYCCQVFDFLTLAAIIDGKILCVHGGLSPEIRMLDQIRVLSRAQEVPHEGGFSDLLWSDPDNVEAWQVSPRGAGWLFGSKVAREFNHVNGLNLIARAHQLVMEGFKYHFPEKDVVTVWSAPNYCYRCGNVASVMKVDEDLEPTFKIFSAVPDDYIRESTANHNNQRAGYFL [E37A;E38A]
